The source of these data is patent US20200087416A1 (Innovent, published 2020).

A word on the Kd: it is the free concentration of one partner at which half of the binding sites on the other are occupied at equilibrium, for simple one-to-one binding. Lower therefore signals higher affinity.

In experiment [1] the target is T1, human PCSK9 (PCSK9 antigen, SEQ ID NO. 53) (human, UniProt A8T644 31-152; Q8NBP7 153-692, Biotin-labelled on amines in the MSD-SET and sorting experiments; positions not given.).
T1 construct: Biotin-labelled in MSD-SET; also called PCSK9-WT; PCSK9 protein
In words: flow cytometry, PCSK9 left on CHO-LDLR cells (anti-His-FITC) after premix with 0.1 nM antibody. In general terms: A flow cytometer gives signals particle by particle.

The target of experiment [2] is T1, human PCSK9 (PCSK9 antigen, SEQ ID NO. …). In words: flow cytometry, PCSK9 left on CHO-LDLR cells (anti-His-FITC) after premix with 1 nM antibody.
The target is the same in experiment [3]. The experiment in a line: cell-based or functional assay.
Experiment [4] has the same target. In words: cell-based or functional assay. This is another data set of the same source.
Experiment [5] has the same target. In words: flow cytometry, PCSK9 left on CHO-LDLR cells (anti-His-FITC) after premix with 10 nM antibody.
For experiment [6] the target is unchanged. In words: flow cytometry, PCSK9 left on CHO-LDLR cells (anti-His-FITC) after premix with 1000 nM antibody.
Experiment [7] concerns the target T2, murine PCSK-9 (murine, UniProt Q80W65 35-694).
T2 construct: also called mouse PCSK9
In words: BLI (ForteBio), IgG on AHQ sensor, 100 nM antigen.

For experiment [8], the target named is T1, human PCSK9 (PCSK9 antigen, SEQ ID NO. …). The experiment in a line: BLI (ForteBio), IgG on AHQ sensor, 100 nM antigen. A general note: Biolayer interferometry detects binding as a change in optical thickness at a sensor tip.
The target is the same in experiment [9]. In words: flow cytometry, PCSK9 left on CHO-LDLR cells (anti-His-FITC) after premix with 100 nM antibody.
Experiment [10] has as its target T2, murine PCSK-9. In words: MSD-SET, Fab with biotin-PCSK9 in solution, IgG on plate, pH 7.4.
Experiment [11] deals with T1, human PCSK9 (PCSK9 antigen, SEQ ID NO. …). The description is as above.
Experiment [12] shares this target. In words: MSD-SET, Fab with biotin-PCSK9 in solution, IgG on plate, pH 6.0.

B1: ADI-10085 (antibody, human IgG2, kappa, V domains shown)
VH: QLQLQESGPGLVKPSETLSLTCTVSGGSIVSSSYYWAWIRQPPGKGLEWIGSINYKGSTYYNPSLKSRVTISVDTSKNQFSLKLSSVTAADTAVYYCARENSGVVPAAGPNWFGPWGQGTLVTVSS
VL: EIVLTQSPATLSLSPGERATLSCRASQSVSSYLAWYQQKPGQAPRLLIYDASNRATGIPARFSGSGSGTDFTLTISSLEPEDFAVYYCQQRRNWFTFGGGTKVEIKR
notes: IgG
On to B1, for which, in experiment [1], the “Fluorescence Signal Value” was 10400. The “Fluorescence Signal Value” in [2] amounted to 8910. Also, in experiment [3], the “BODIPY-LDL uptake by HepG2 cells, fluorescence, 4.2 nM, replicate 1” value (“BODIPY-LDL uptake … 4.2 nM, replicate 1” below) stood at 0.423; the “BODIPY-LDL uptake by HepG2 cells, fluorescence, 4.2 nM, replicate 2” value (shortened to “BODIPY-LDL uptake … 4.2 nM, replicate 2”) was determined as 0.435; the “BODIPY-LDL uptake by HepG2 cells, fluorescence, 16.8 nM, replicate 1” value (“BODIPY-LDL uptake … 16.8 nM, replicate 1” for short) was 0.78; the “BODIPY-LDL uptake by HepG2 cells, fluorescence, 16.8 nM, replicate 2” value (“BODIPY-LDL uptake … 16.8 nM, replicate 2” for short) was determined as 0.742. In experiment [3], the “BODIPY-LDL uptake by HepG2 cells, fluorescence, 66.7 nM, replicate 1” value (“BODIPY-LDL uptake … 66.7 nM, replicate 1” for short) was found to be 0.749 and the “BODIPY-LDL uptake by HepG2 cells, fluorescence, 66.7 nM, replicate 2” value (“BODIPY-LDL uptake … 66.7 nM, replicate 2” for short) came to 0.797. Further, the “fluorescence of BODIPY-LDL in HepG2 cells against no anti-PCSK9 antibody” value (“fluorescence … against no anti-PCSK9 antibody” for short) in [4] was around 2 times. For the same molecule, the “Fluorescence Signal Value” in experiment [5] came out at 5680. Also, the “Fluorescence Signal Value” in experiment [6] amounted to 5700. In the experiment with murine PCSK-9 [7], this molecule came in with a Kd of 0.544 nM. Binding in [8] was characterised by a dissociation constant (Kd) of 0.295 nM. Also, the “Fluorescence Signal Value” in experiment [9] came out at 5090.

B2: ADI-10087 Fab (Fab, V domains shown)
VH: QLQLQESGPGLVKPSETLSLTCTVSGGSISSASYYWSWIRQPPGKGLEWIGSINYRGSTYYNPSLKSRVTISVDTSKNQFSLKLSSVTAADTAVYYCARENSGVVPAAGPNWFGPWGQGTLVTVSS
VL: EIVLTQSPATLSLSPGERATLSCRASQSVSSYLAWYQQKPGQAPRLLIYDASNRATGIPARFSGSGSGTDFTLTISSLEPEDFAVYYCQQRRNWFTFGGGTKVEIKR
As to B2, the values for the equilibrium dissociation constant (Kd) (with murine PCSK-9 [10]; in [11]; in experiment [12]) were 0.041 nM, 0.005 nM and 0.0098 nM, respectively.

B3: ADI-09111 Fab (Fab, V domains shown)
VH: QLQLQESGPGLVKPSETLSLTCTVSGGSISSSSYYWGWIRQPPGKGLEWIGSIYYSGSTYYNPSLKSRVTISVDTSKNQFSLKLSSVTAADTAVYYCARENSGVVPAAGPNWFDPWGQGTLVTVSS
VL: EIVLTQSPATLSLSPGERATLSCRASQSVSSYLAWYQQKPGQAPRLLIYDASNRATGIPARFSGSGSGTDFTLTISSLEPEDFAVYYCQQRRNWFTFGGGTKVEIKR
As for B3, the Kd with murine PCSK-9 [10] came out at 3.5 nM; in experiment [11], 0.7 nM; in experiment [12], 1.9 nM.

B4: ADI-10090 Fab (Fab, V domains shown)
VH: QLQLQESGPGLVKPSETLSLTCTVSGGSIWSSSYYWTWIRQPPGKGLEWIGSINYRGSTYYNPSLKSRVTISVDTSKNQFSLKLSSVTAADTAVYYCARENSGVVPAAGPNWFDPWGQGTLVTVSS
VL: EIVLTQSPATLSLSPGERATLSCRASQSVSSYLAWYQQKPGQAPRLLIYDASNRATGIPARFSGSGSGTDFTLTISSLEPEDFAVYYCQQRRNWFTFGGGTKVEIKR
Consider B4, for which the Kd turned out to be 0.12 nM in the experiment with murine PCSK-9 [10], 0.017 nM in experiment [11] and 0.021 nM in [12].

B5: ADI-10089 Fab (Fab, V domains shown)
VH: QLQLQESGPGLVKPSETLSLTCTVSGGSIGSSSYYWTWIRQPPGKGLEWIGSINYRGSTYYNPSLKSRVTISVDTSKNQFSLKLSSVTAADTAVYYCARENSGVVPAAGPNWFDPWGQGTLVTVSS
VL: EIVLTQSPATLSLSPGERATLSCRASQSVSSYLAWYQQKPGQAPRLLIYDASNRATGIPARFSGSGSGTDFTLTISSLEPEDFAVYYCQQRRNWFTFGGGTKVEIKR
Regarding B5, the results for the Kd (in the experiment with murine PCSK-9 [10]; in experiment [11]; in experiment [12]) were 0.07 nM, 0.011 nM and 0.01 nM, respectively.

B6: ADI-09113 Fab (Fab, V domains shown)
VH: QLQLQESGPGLVKPSETLSLTCTVSGGSVSSSSYYWGWIRQPPGKGLEWIGSAYYSGSTYYNPSLKSRVTISVDTSKNQFSLKLSSVTAADTAVYYCARENSGVVPAAGPNWFDPWGQGTLVTVSS
VL: EIVLTQSPATLSLSPGERATLSCRASQSVSSYLAWYQQKPGQAPRLLIYDASNRATGIPARFSGSGSGTDFTLTISSLEPEDFAVYYCQQRRNWFTFGGGTKVEIKR
Consider B6, for which the equilibrium dissociation constant (Kd) in the experiment with murine PCSK-9 [10] was 0.76 nM; in experiment [11], 0.17 nM; in experiment [12], 0.65 nM.

B7: ADI-10087 (antibody, human IgG2, kappa, V domains shown)
VH: QLQLQESGPGLVKPSETLSLTCTVSGGSISSASYYWSWIRQPPGKGLEWIGSINYRGSTYYNPSLKSRVTISVDTSKNQFSLKLSSVTAADTAVYYCARENSGVVPAAGPNWFGPWGQGTLVTVSS
VL: EIVLTQSPATLSLSPGERATLSCRASQSVSSYLAWYQQKPGQAPRLLIYDASNRATGIPARFSGSGSGTDFTLTISSLEPEDFAVYYCQQRRNWFTFGGGTKVEIKR
notes: also called anti-PCSK antibody of the invention
On to B7, for which the “Fluorescence Signal Value” turned out to be 6860 in [1]; 6480 in experiment [2]; 5740 in experiment [5]; 5090 in experiment [6]; 5260 in [9]. Also, the “BODIPY-LDL uptake … 4.2 nM, replicate 1” value in experiment [3] was 0.37. The “BODIPY-LDL uptake … 4.2 nM, replicate 2” value in [3] worked out at 0.403. Also, the “BODIPY-LDL uptake … 16.8 nM, replicate 1” value in [3] was 0.72. Moreover, the “BODIPY-LDL uptake … 16.8 nM, replicate 2” value in experiment [3] was 0.683. In addition, the “BODIPY-LDL uptake … 66.7 nM, replicate 1” value in experiment [3] amounted to 0.758. In experiment [3], the “BODIPY-LDL uptake … 66.7 nM, replicate 2” value is 0.775. In addition, in [4], the “fluorescence … against no anti-PCSK9 antibody” value was around 2 times. The dissociation constant Kd was 0.558 nM with murine PCSK-9 [7] and 0.296 nM in [8].

B8: ADI-10086 Fab (Fab, V domains shown)
VH: QLQLQESGPGLVKPSETLSLTCTVSGGSIRSSAYYWGWIRQPPGKGLEWIGSINYRGSTYYNPSLKSRVTISVDTSKNQFSLKLSSVTAADTAVYYCARENSGVVPAAGPNWFGPWGQGTLVTVSS
VL: EIVLTQSPATLSLSPGERATLSCRASQSVSSYLAWYQQKPGQAPRLLIYDASNRATGIPARFSGSGSGTDFTLTISSLEPEDFAVYYCQQRRNWFTFGGGTKVEIKR
Regarding B8, the Kd with murine PCSK-9 [10] worked out at 0.06 nM; in [11] it was 0.0086 nM; in experiment [12] it was 0.013 nM.

B9: ADI-10088 (antibody, human IgG2, kappa, V domains shown)
VH: QLQLQESGPGLVKPSETLSLTCTVSGGSIGSSSYYWAWIRQPPGKGLEWIGSINYRGSTYYNPSLKSRVTISVDTSKNQFSLKLSSVTAADTAVYYCARENSGVVPAAGPNWFDPWGQGTLVTVSS
VL: EIVLTQSPATLSLSPGERATLSCRASQSVSSYLAWYQQKPGQAPRLLIYDASNRATGIPARFSGSGSGTDFTLTISSLEPEDFAVYYCQQRRNWFTFGGGTKVEIKR
notes: IgG
As for B9, the “Fluorescence Signal Value” in experiment [1] was 6800. For the same molecule, the “Fluorescence Signal Value” in [2] worked out at 6830. Besides, in [3], the “BODIPY-LDL uptake … 4.2 nM, replicate 1” value came to 0.357; the “BODIPY-LDL uptake … 4.2 nM, replicate 2” value was 0.401; the “BODIPY-LDL uptake … 16.8 nM, replicate 1” value is 0.574; the “BODIPY-LDL uptake … 16.8 nM, replicate 2” value was determined as 0.561. In experiment [3], the “BODIPY-LDL uptake … 66.7 nM, replicate 1” value was 0.706 and the “BODIPY-LDL uptake … 66.7 nM, replicate 2” value was 0.752. The “fluorescence … against no anti-PCSK9 antibody” value in [4] was around 2 times. Moreover, the “Fluorescence Signal Value” in experiment [5] was found to be 5830. In [6], the “Fluorescence Signal Value” was 5220. This molecule came in with a Kd in the experiment with murine PCSK-9 [7] of 0.855 nM. This molecule displayed an equilibrium dissociation constant (Kd) in experiment [8] of 0.471 nM. The “Fluorescence Signal Value” in experiment [9] amounted to 5160.
